Laboratory results: publication PMC4824073, “Ribonucleoprotein particles of bacterial small non-coding RNA IsrA (IS61 or McaS) and its interaction with RNA polymerase core may link transcription to mRNA fate”

Legend:
[1] = molecular target: RNAP core enzyme (UniProt P0A7Z4;P0A8V2;P0A8T7 1-329;1-1342;1-1407); experiment: EMSA; heparin added after complex formation (heparin-resistant); EMSA (Figs 3B, 4): 1x buffer 15 mM Tris-HCl pH 8, 100 mM KCl, 1 mM MgCl2, 1 mM DTT, 1 ug yeast RNA, 37 C 10-20 min, then heparin on ice; Fig 3A as in ref 29 without yeast RNA; pull-down: 10 mM Tris-HCl pH 7.8, 200 mM KCl, 1 mM MgCl2, 5% glycerol, 1 mM DTT, 4 C, heparin 100 ug/ml wash; details: protein: native; chain copies: 2;1;1; label: 32P; three stem-loops
RNAP core enzyme, sequence (P0A7Z4 whole entry, chain 1 of 3): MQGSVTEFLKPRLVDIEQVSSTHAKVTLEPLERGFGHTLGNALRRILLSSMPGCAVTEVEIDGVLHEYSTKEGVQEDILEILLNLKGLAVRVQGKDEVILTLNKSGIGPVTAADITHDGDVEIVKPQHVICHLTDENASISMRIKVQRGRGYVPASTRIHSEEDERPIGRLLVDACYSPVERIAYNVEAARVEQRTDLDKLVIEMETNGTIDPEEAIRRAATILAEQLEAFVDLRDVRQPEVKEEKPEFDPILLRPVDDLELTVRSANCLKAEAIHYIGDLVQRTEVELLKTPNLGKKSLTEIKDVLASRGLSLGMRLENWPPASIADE
RNAP core enzyme, sequence (P0A8V2 whole entry, chain 2 of 3): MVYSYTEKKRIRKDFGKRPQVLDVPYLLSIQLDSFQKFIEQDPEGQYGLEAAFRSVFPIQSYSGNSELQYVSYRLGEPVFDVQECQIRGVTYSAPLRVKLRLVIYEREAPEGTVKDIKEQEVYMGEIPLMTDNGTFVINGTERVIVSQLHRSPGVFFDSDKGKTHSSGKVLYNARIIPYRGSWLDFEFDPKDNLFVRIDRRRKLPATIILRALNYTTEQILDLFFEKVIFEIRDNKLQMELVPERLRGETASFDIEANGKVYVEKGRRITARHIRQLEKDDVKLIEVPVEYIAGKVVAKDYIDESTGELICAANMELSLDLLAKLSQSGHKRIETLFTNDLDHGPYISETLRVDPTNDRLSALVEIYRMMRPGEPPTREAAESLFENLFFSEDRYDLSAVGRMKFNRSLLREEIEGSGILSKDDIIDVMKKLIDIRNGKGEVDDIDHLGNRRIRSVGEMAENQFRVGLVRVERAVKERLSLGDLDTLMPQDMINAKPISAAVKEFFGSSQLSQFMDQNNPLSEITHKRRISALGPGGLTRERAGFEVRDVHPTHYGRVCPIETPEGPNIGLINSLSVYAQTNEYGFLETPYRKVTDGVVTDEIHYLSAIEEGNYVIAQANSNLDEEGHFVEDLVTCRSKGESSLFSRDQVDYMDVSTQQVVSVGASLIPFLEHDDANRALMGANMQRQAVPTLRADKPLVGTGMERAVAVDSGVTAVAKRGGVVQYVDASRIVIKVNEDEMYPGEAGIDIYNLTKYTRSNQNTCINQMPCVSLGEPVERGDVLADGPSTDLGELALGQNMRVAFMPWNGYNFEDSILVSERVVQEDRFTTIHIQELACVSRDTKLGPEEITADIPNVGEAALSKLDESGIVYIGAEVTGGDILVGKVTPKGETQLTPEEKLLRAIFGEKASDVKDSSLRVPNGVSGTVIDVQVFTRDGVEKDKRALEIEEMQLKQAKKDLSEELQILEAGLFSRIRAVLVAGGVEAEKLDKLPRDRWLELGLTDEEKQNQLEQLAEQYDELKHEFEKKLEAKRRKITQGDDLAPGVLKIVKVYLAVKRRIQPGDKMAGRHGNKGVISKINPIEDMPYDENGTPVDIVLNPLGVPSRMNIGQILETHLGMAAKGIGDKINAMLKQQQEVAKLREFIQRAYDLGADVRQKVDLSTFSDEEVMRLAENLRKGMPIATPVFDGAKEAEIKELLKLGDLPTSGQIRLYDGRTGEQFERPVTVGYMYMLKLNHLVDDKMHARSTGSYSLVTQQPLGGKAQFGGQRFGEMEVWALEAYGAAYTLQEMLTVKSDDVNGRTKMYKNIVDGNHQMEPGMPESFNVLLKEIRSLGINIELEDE
RNAP core enzyme, sequence (P0A8T7 whole entry, chain 3 of 3): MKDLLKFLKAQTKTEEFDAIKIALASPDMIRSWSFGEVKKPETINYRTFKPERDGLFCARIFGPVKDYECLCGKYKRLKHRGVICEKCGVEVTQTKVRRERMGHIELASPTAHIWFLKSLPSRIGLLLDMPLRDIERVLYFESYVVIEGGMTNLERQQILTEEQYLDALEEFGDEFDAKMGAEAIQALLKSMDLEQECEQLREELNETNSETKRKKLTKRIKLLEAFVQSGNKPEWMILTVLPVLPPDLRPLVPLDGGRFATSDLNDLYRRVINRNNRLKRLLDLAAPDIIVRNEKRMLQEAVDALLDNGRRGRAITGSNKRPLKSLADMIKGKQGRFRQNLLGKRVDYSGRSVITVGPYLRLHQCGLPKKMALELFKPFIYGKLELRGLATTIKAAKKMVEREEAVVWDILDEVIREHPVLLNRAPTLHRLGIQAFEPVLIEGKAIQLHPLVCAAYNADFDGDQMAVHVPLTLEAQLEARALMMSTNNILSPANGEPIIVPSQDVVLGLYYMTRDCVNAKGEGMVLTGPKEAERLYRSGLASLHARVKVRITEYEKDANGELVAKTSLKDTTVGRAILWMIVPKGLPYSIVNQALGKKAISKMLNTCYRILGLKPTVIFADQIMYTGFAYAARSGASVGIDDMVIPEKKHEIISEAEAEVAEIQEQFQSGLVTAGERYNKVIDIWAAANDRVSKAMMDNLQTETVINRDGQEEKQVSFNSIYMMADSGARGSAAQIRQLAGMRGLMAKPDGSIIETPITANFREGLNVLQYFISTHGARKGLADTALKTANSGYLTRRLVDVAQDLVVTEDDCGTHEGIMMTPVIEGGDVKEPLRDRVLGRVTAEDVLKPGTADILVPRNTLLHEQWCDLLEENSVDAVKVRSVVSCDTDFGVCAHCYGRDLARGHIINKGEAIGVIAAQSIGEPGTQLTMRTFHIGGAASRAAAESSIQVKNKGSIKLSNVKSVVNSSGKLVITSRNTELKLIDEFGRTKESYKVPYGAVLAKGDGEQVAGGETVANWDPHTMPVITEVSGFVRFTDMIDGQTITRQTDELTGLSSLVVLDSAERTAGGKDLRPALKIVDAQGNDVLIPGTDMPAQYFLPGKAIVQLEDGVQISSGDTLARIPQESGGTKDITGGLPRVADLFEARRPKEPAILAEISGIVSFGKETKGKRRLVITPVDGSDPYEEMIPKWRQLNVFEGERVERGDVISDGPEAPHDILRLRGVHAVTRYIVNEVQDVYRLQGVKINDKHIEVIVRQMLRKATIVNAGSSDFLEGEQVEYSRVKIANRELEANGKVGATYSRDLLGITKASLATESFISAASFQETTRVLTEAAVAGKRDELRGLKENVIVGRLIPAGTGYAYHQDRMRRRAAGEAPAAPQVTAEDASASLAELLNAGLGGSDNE

[2] = molecular target: RNAP core enzyme;sigma70 (Escherichia coli?;Escherichia coli?, UniProt P0A7Z4;P0A8V2;P0A8T7;P00579 1-329;1-1342;1-1407;1-613, |); experiment: as above; details: protein: native;recombinant; tags: ;; chain copies: 2;1;1;1; label: 32P; three stem-loops
[3] = molecular target: RNAP (core or holo not stated) (UniProt P0A7Z4;P0A8V2;P0A8T7 1-329;1-1342;1-1407); experiment: competition; unlabeled IsrA 15-fold excess vs labeled IsrA; yeast RNA, heparin after; EMSA (Figs 3B, 4): 1x buffer 15 mM Tris-HCl pH 8, 100 mM KCl, 1 mM MgCl2, 1 mM DTT, 1 ug yeast RNA, 37 C 10-20 min, then heparin on ice; Fig 3A as in ref 29 without yeast RNA; pull-down: 10 mM Tris-HCl pH 7.8, 200 mM KCl, 1 mM MgCl2, 5% glycerol, 1 mM DTT, 4 C, heparin 100 ug/ml wash; details: protein: native; chain copies: 2;1;1; label: 32P; three stem-loops

Measured: binding result

B1: IsrA (IS61, McaS) (structured_RNA)
RNA: ACCGGCGCAGAGGAGACAAUGCCGGAUUUAAGACGCGGAUGCACUGCUGUGUGUACUGUAGAGUCUGGCGGAUGUCGACAGACUCUAUUUUUUU
binds: [1] | [2] | [3]
